Source: publication PMC4437028 (2015)

Legend:
[1] = target: mouse Slitrk2 LRR1 (first leucine-rich repeat of Slit and Trk-like family member 2), wild type (UniProt Q810C0); test: SPR equilibrium analysis; details: point at 4 µM PTPδ Ig1-Fn1 (highest concentration); Slitrk2 LRR1 immobilized on a CM5 sensor tip; parent: est. 600; read off a plot
[2] = target: T1, mouse Slitrk2 LRR1 (first leucine-rich repeat of Slit and Trk-like family member 2), wild type, Q810C0; test: SPR equilibrium analysis; details: chain shown with the change, Slitrk2 LRR1 immobilized on a CM5 sensor tip
T1 chain: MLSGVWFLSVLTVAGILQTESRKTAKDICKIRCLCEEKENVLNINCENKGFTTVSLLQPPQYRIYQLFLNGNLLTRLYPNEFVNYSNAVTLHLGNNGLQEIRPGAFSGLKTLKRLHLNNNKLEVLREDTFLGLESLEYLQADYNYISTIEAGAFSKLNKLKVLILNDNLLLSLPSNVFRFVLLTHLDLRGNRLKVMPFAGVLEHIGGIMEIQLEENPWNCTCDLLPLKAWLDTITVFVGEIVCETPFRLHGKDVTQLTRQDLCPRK

[3] = target: T2, mouse Slitrk2 LRR1 F247A H250A (mouse, UniProt Q810C0 1-266, F247A | H250A); test: SPR
T2 sequence: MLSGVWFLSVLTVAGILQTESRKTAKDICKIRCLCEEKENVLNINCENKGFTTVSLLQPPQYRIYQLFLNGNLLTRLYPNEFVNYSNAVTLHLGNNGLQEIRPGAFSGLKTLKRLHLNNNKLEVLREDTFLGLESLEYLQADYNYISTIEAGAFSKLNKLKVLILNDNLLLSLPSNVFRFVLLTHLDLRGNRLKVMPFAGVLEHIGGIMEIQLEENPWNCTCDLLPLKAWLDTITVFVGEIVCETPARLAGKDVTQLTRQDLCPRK

mouse Slitrk2 LRR1 R114A = target: T3, mouse Slitrk2 LRR1 R114A (mouse, UniProt Q810C0 1-266, R114A); test: SPR
T3 sequence: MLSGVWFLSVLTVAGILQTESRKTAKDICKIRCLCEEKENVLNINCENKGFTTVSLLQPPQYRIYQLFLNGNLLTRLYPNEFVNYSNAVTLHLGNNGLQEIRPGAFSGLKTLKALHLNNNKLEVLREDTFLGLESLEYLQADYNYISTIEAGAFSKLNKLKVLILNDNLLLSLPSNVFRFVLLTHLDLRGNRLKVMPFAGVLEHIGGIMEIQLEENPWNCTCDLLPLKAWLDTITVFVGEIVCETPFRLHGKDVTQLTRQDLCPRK

[4] = target: T4, mouse Slitrk2 LRR1 (first leucine-rich repeat of Slit and Trk-like family member 2), wild type (mouse, UniProt Q810C0 1-266, N-linked glycans); test: SPR
T4 chain: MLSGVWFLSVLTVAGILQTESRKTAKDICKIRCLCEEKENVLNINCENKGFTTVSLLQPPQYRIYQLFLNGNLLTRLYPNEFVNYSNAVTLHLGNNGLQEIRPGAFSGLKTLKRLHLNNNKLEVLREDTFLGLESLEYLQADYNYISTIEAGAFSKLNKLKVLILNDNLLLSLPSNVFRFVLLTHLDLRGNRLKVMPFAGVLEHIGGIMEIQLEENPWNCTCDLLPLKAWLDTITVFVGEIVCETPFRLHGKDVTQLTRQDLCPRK

[5] = target: mouse Slitrk2 LRR1 (first leucine-rich repeat of Slit and Trk-like family member 2), wild type (mouse) (UniProt Q810C0); test: crystal structure; Slitrk2 LRR1 and PTPδ Ig1-Fn1 mixed at a molar ratio of 1:1, treated with neuraminidase; sitting drop vapor diffusion, 293 K, 15% PEG4000, 0.1 M sodium acetate, 0.1 M MES (pH 6.0); 3.35 Å

“mouse PTPδ Ig1-Fn1 (residues 28-418), splice variant meA9B+ (from UniProt Q64487) R236E” showed a response (Response unit) [1] of 97.

B1: mouse PTPδ Ig1-Fn1 (residues 28-418), splice variant meA9B+, Q64487 Y273A (protein)
chain: ETPPRFTRTPVDQTGVSGGVASFICQATGDPRPKIVWNKKGKKVSNQRFEVIEFDDGSGSVLRIQPLRTPRDEAIYECVASNNVGEISVSTRLTVLREDQIPRGFPTIDMGPQLKVVERTRTATMLCAASGNPDPEITWFKDFLPVDTSNNNGRIKQLRSESIGGTPIRGALQIEQSEESDQGKYECVATNSAGTRYSAPANLYVRELREVRRVPPRFSIPPTNHEIMPGGSVNITCVAVGSPMPAVKWMLGAEDLTPEDDMPIGRNVLELNDVRQSANYTCVAMSTLGVIEAIAQITVKALPKPPGTPVVTESTATSITLTWDSGNPEPVSYYIIQHKPKNSEEPYKEIDGIATTRYSVAGLSPYSDYEFRVVAVNNIGRGPASEPVLTQ
With B1 the Kd ([2]; PTPδ Ig1-Fn1 injected, parent: 355.5 ± 6.5 nM) was 312 nM and the response (Response unit) ([2]; point at 4 µM PTPδ Ig1-Fn1 (highest concentration), parent: est. 600, read off a …) was 500.

B2: mouse PTPδ Ig1-Fn1 (residues 28-418), splice variant meA9B+ (domain or fragment)
chain: ETPPRFTRTPVDQTGVSGGVASFICQATGDPRPKIVWNKKGKKVSNQRFEVIEFDDGSGSVLRIQPLRTPRDEAIYECVASNNVGEISVSTRLTVLREDQIPRGFPTIDMGPQLKVVERTRTATMLCAASGNPDPEITWFKDFLPVDTSNNNGRIKQLRSESIGGTPIRGALQIEQSEESDQGKYECVATNSAGTRYSAPANLYVRELREVRRVPPRFSIPPTNHEIMPGGSVNITCVAVGSPMPYVKWMLGAEDLTPEDDMPIGRNVLELNDVRQSANYTCVAMSTLGVIEAIAQITVKALPKPPGTPVVTESTATSITLTWDSGNPEPVSYYIIQHKPKNSEEPYKEIDGIATTRYSVAGLSPYSDYEFRVVAVNNIGRGPASEPVLTQ
modifications: N-linked glycans
For B2, the Kd [3] was 580 nM, the Kd (mouse Slitrk2 LRR1 R114A) was 257 nM and the Kd [4] was 356 nM. The stoichiometry N [5] was 1.

B3: mouse PTPδ Ig1-Fn1, splice variant meA-B+ (domain or fragment)
chain: ETPPRFTRTPVDQTGVSGGVASFICQATGDPRPKIVWNKKGKKVSNQRFEVIEFDDGSGSVLRIQPLRTPRDEAIYECVASNNVGEISVSTRLTVLREDQIPRGFPTIDMGPQLKVVERTRTATMLCAASGNPDPEITWFKDFLPVDTSNNNGRIKQLRSGALQIEQSEESDQGKYECVATNSAGTRYSAPANLYVRELREVRRVPPRFSIPPTNHEIMPGGSVNITCVAVGSPMPYVKWMLGAEDLTPEDDMPIGRNVLELNDVRQSANYTCVAMSTLGVIEAIAQITVKALPKPPGTPVVTESTATSITLTWDSGNPEPVSYYIIQHKPKNSEEPYKEIDGIATTRYSVAGLSPYSDYEFRVVAVNNIGRGPASEPVLTQ
With B3 the Kd [4] was 451 nM.
